{"source": "patent US5237051A", "about": "(Vanderbilt University, priority 1990, dated 1993)"}
{"target": "T1, GC-C (Rattus norvegicus, UniProt P23897)", "T1 construct": "expressed in transfected cells; host or cells: COS-7", "T1 sequence (P23897 23-1072)": "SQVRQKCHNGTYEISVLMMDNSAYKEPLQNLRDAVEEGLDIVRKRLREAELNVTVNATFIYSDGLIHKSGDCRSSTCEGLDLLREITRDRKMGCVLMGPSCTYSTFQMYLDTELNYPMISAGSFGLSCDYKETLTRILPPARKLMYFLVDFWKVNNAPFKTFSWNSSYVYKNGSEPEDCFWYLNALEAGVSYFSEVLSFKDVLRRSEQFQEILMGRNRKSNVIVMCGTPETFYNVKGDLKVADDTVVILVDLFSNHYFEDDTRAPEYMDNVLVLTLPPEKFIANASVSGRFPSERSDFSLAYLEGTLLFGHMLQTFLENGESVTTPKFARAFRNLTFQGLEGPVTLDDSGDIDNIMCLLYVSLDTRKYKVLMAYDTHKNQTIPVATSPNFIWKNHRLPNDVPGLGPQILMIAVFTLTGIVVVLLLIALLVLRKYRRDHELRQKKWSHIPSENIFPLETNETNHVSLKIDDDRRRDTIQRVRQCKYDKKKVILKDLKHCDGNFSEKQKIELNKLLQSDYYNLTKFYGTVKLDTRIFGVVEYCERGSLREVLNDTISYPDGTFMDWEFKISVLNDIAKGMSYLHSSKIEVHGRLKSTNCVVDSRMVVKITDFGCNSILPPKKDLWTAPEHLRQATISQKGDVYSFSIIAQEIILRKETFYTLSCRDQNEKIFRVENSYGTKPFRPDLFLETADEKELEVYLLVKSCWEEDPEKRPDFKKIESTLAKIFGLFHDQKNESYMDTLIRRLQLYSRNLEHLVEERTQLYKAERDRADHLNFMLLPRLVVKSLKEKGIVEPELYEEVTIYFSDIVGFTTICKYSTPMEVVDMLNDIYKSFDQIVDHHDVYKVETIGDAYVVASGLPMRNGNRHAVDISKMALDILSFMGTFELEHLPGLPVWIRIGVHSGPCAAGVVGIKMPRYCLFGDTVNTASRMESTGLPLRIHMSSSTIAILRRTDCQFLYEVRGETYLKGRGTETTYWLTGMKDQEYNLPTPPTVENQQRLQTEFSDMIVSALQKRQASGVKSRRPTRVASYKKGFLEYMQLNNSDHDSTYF", "format": "cell-based"}
{"substance": "atrial natriuretic peptide", "cyclic GMP levels after stimulation of transfected cells (in words)": "did not increase cyclic GMP levels above background", "stimulation of GC-C (in words)": "failed to stimulate"}
{"substance": "brain natriuretic peptide", "cyclic GMP levels after stimulation of transfected cells (in words)": "did not increase cyclic GMP levels above background", "stimulation of GC-C (in words)": "failed to stimulate"}
{"substance": "C-type natriuretic peptide", "cyclic GMP levels after stimulation of transfected cells (in words)": "did not increase cyclic GMP levels above background", "stimulation of GC-C (in words)": "failed to stimulate"}
